Data reported in patent US8637024 (dated 2014).
Numbering of substitutions follows the chain as printed. Numbers in names are those of the source.

B1: SQTLH (clone 33) (antibody, V domains shown)
VH: QVQLQQSGPEVVKPGASVKMSCKASGYTFTSQTLHWVRQKPGQGLDWIGYINPYNDGTDYDEKFKGKATLTSDTSTSTAYMELSSLRSEDTAVYYCAREKDNYATGAWFAYWGQGTLVTVSS
VL: DIVMTQSPDSLAVSLGERVTMNCKSSQSLLYSTNQKNYLAWYQQKPGQSPKLLIYWASTRESGVPDRFSGSGSGTDFTLTISSVQAEDVAVYYCQQYYSYRTFGGGTKLEIK
B2: M22 (CDR-H1 DYTIH) (antibody, V domains shown)
VH: B1 VH with S31D, Q32Y, L34I
VL: B1 VL
B3: SQTIH (clone 23) (antibody, V domains shown)
VH: B1 VH with L34I
VL: B1 VL
B4: M28 (CDR-H1 DYTFH) (antibody, V domains shown)
VH: B1 VH with S31D, Q32Y, L34F
VL: B1 VL
B5: AQTLH (clone 30) (antibody, V domains shown)
VH: B1 VH with S31A
VL: B1 VL
B6: DQTLH (clone 27, 31) (antibody, V domains shown)
VH: B1 VH with S31D
VL: B1 VL
B7: ML28 (antibody, V domains shown)
VH: B1 VH with Q32Y, T33V, L34I, T105V, G106P, A107G
VL: B1 VL
B8: ML29 (antibody, V domains shown)
VH: B1 VH with Q32Y, T33V, L34I, N102S, Y103L, A104T
VL: B1 VL
B9: ML11 (antibody, V domains shown)
VH: B1 VH with Q32Y, T33V, L34I, A97V, N102S, Y103F
VL: B1 VL
B10: ML1 (CDR-H1 SRVLS) (antibody, V domains shown)
VH: B1 VH with Q32R, T33V, H35S
VL: B1 VL
B11: ML26 (antibody, V domains shown)
VH: B1 VH with Q32Y, T33V, L34I, E99Q, K100A, D101A
VL: B1 VL
B12: M24 (CDR-H1 EQTLH) (antibody, V domains shown)
VH: B1 VH with S31E
VL: B1 VL
B13: EYTFH (clone 40) (antibody, V domains shown)
VH: B1 VH with S31E, Q32Y, L34F
VL: B1 VL
B14: m36 (antibody, V domains shown)
VH: QVQLVQSGGGLVQPGGSLRLSCAASAFDFSDYEMSWVRQAPGKGLEWIGEINDSGNTIYNPSLKSRVTISRDNSKNTLYLQMNTLRAEDTAIYYCAIYGGNSGGEYWGQGTLVTVSS
B15: iMabΔm36 (iMab arm) (antibody)
chain 1: MEWSGVFMFLLSVTAGVHSQVQLQQSGPEVVKPGASVKMSCKASGYTFTSYVIHWVRQKPGQGLDWIGYINPYNDGTDYDEKFKGKATLTSDTSTSTAYMELSSLRSEDTAVYYCARAKDNAATGAWFAYWGQGTLVTVSSASTKGPSVFPLAPSSKSTSGGTAALGCLVKDYFPEPVTVSWNSGALTSGVHTFPAVLQSSGLYSLSSVVTVPSSSLGTQTYICNVNHKPSNTKVDKKVEPKSCDKTHTCPPCPAPEFEGGPSVFLFPPKPKDTLMISRTPEVTCVVVDVSHEDPEVKFNWYVDGVEVHNAKTKPREEQYNSTYRVVSVLTVLHQDWLNGKEYKCKVSNKALPASIEKTISKAKGQPREPQVYTLPPSRDELTKNQVSLTCLVKGFYPSDIAVEWESNGQPENNYKTTPPVLDSDGSFFLYSKLTVDKSRWQQGNVFSCSVLHEALHSHYTQKSLSLSPGKLEGGGGSGGGGSGGGGSGQVQLVQSGGGLVQPGGSLRLSCAASAFDFSDYEMSWVRQAPGKGLEWIGEINDSGNTIYNPSLKSRVTISRDNSKNTLYLQMNTLRAEDTAIYYCAIYGGNSGGEYWGQGTLVTVSS
chain 2: not shown
B16: M3 (CDR-H1 EYTIH) (antibody, V domains shown)
VH: B1 VH with S31E, Q32Y, L34I
VL: B1 VL
B17: E95A (antibody, V domains shown)
VH: B1 VH with Q32Y, T33V, L34I, E99A
VL: B1 VL
B18: GQTLH (clone 25, 37) (antibody, V domains shown)
VH: B1 VH with S31G
VL: B1 VL
B19: NQTLH (clone 26, 36) (antibody, V domains shown)
VH: B1 VH with S31N
VL: B1 VL

biological target: T1, human soluble CD4 (sCD4) (human, UniProt P01730); experiment: not given

| Kd | Binder |
| --- | --- |
| 0.012 nM | B1 |
| 0.0346 nM | B2 |
| 0.0192 nM | B3 |
| 0.0132 nM | B4 |
| 0.0107 nM | B5 |
| 0.015 nM | B6 |
| 1.41 nM | B7 |
| 2.23 nM | B8 |
| 2.47 nM | B9 |
| 2.13 nM | B10 |
| 3.64 nM | B11 |
| 0.0097 nM | B12 |
| 0.0112 nM | B13 |

biological target: T1, human soluble CD4 (sCD4); experiment: competition ELISA

| binding result | Binder |
| --- | --- |
| no binding | B14 |
| no binding | B15 |

biological target: T1, human soluble CD4 (sCD4); experiment: SPR

| Kd | Binder |
| --- | --- |
| 0.033 nM | B16 |
| 0.047 nM | B2 |
| 0.014 nM | B4 |
| 7.7 nM | B17 |
| 0.018 nM | B12 |

biological target: T1, human soluble CD4 (sCD4); experiment: SPR; remark: another data set of the same source

| Kd | Binder |
| --- | --- |
| 1.76 nM | B7 |
| 4.83 nM | B8 |
| 6.72 nM | B9 |
| 2.14 nM | B10 |
| 4.14 nM | B11 |
| 0.0042 nM | B12 |

biological target: T1, human soluble CD4 (sCD4); experiment: not given; remark: another data set of the same source

| Kd | Binder |
| --- | --- |
| 0.012 nM | B1 |
| 0.0346 nM | B2 |
| 0.0192 nM | B3 |
| 0.0132 nM | B4 |
| 0.0173 nM | B18 |
| 0.0107 nM | B5 |
| 0.015 nM | B6 |
| 0.0406 nM | B19 |
| 0.0097 nM | B12 |
| 0.0112 nM | B13 |
